Measured values as given in patent US20100021490A1 (INSTITUT NATIONAL DE LA RECHERCHE AGRONOMIQUE INRA, published 2010).

Molecular target: T1, N protein of measles virus (Edmonston B strain) (measles virus, Edmonston B strain, UniProt P0DXN6 1-525, limits assumed)
T1 construct: The construct is not described; also called measles virus N protein
T1 sequence: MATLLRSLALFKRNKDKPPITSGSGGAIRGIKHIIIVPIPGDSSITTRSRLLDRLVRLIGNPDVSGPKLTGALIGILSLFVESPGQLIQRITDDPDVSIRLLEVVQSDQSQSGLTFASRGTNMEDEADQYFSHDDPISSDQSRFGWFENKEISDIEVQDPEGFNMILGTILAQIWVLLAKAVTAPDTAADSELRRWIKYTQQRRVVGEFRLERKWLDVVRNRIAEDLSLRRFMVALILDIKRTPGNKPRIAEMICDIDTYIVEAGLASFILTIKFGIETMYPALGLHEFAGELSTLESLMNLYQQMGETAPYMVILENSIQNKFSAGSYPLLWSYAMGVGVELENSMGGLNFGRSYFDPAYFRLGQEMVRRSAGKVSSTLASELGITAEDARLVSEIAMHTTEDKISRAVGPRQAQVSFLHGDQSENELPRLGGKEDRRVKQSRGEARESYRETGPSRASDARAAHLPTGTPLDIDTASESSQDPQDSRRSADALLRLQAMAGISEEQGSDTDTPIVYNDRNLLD
Assay: coexpression of the P fragment with N, co-purification

B1: PΔ457N (C-terminal fragment of the measles virus P protein with the N-terminal portion deleted up to residue 456 inclusive) (other, not shown: a dimerising Fc or GST)
chain: GPASRSVIRSIIKSSRLEEDRKRYLMTLLDDIKGANDLAKFHQMLMKIIMK
notes: also called measles PΔ457N
B1: no binding.
